Assay results as given in patent publication US20160200782A1 (MOERAE MATRIX, published 2016).

What was measured:
Assay in all cases: cell-based or functional assay
eEF-2K(h) = target: T1, eEF-2K(h) (human, UniProt O00418 1-725, limits assumed)
T1 sequence (looked up): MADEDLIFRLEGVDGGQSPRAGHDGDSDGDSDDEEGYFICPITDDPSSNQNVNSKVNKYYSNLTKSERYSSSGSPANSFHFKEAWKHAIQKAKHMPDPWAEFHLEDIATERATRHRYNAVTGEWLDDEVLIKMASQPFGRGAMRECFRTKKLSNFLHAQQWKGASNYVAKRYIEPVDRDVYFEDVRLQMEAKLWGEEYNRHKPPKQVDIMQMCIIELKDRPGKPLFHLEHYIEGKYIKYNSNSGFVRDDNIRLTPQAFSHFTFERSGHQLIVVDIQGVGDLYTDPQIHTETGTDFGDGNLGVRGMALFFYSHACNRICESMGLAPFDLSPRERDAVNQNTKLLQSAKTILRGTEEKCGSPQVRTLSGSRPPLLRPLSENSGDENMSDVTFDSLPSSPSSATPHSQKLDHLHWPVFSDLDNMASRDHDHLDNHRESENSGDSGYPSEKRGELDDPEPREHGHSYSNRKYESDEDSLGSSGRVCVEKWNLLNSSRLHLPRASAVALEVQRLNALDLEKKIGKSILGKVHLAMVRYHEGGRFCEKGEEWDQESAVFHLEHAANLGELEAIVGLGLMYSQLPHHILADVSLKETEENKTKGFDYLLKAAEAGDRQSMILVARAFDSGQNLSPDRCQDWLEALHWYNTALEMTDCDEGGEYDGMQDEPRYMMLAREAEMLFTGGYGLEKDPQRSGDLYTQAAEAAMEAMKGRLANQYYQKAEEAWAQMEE

WNK2(h) = WNK2(h) (human, UniProt Q9Y3S1 166-489, limits assumed)
Sequence of WNK2(h) (Q9Y3S1 166-489 limits assumed): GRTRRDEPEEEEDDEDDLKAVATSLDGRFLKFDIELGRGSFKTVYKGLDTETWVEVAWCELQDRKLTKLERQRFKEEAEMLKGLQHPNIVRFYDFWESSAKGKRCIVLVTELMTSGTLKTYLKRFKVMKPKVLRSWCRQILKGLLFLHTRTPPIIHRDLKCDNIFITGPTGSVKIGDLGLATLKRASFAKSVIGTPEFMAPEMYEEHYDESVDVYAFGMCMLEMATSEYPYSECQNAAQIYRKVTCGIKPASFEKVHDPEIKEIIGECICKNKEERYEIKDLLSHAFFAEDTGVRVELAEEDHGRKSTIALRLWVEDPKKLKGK

Rsk1(h) = Rsk1(h) (human, UniProt Q15418 1-735, limits assumed)
Sequence of Rsk1(h) (Q15418 whole entry): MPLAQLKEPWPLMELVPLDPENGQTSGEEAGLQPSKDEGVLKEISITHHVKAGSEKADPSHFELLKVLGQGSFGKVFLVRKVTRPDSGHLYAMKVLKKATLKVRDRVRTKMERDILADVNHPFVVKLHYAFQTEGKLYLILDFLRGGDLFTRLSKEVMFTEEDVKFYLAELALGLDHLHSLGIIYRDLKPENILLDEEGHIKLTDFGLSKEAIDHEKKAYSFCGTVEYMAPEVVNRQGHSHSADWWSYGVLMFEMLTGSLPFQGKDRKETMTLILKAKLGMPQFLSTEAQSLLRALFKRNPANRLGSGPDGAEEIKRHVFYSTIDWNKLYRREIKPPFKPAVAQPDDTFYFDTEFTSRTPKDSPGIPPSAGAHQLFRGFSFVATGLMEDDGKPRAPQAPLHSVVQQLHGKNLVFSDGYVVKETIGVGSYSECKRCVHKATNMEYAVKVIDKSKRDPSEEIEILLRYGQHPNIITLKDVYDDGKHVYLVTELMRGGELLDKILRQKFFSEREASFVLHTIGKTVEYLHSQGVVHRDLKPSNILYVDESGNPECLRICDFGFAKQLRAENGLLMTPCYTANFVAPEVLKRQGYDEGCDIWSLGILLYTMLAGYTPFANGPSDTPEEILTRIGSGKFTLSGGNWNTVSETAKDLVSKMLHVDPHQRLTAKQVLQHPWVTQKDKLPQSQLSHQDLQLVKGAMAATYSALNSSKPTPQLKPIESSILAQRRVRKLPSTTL

Itk(h) = target: T2, Itk(h) (human, UniProt Q08881 1-620, limits assumed)
T2 sequence (looked up): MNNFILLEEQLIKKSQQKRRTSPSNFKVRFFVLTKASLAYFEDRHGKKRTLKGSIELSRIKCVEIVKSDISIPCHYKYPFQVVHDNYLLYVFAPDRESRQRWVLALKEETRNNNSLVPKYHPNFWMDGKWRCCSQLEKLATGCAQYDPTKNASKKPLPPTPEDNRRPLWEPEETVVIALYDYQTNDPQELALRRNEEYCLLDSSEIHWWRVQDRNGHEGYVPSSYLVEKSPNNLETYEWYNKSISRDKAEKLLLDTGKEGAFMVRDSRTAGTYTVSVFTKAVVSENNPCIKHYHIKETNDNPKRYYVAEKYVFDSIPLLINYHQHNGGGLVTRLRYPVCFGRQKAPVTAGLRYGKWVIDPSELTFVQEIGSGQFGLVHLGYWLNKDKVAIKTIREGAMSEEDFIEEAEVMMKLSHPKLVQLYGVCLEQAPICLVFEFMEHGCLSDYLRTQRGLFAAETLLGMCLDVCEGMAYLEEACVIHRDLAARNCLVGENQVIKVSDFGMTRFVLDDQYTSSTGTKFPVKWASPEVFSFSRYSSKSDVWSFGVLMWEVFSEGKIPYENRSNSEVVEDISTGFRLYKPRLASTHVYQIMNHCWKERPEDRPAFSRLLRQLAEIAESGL

DAPK1(h) = DAPK1(h) (human, UniProt P53355 1-289, limits assumed)
Sequence of DAPK1(h) (P53355 1-289 limits assumed): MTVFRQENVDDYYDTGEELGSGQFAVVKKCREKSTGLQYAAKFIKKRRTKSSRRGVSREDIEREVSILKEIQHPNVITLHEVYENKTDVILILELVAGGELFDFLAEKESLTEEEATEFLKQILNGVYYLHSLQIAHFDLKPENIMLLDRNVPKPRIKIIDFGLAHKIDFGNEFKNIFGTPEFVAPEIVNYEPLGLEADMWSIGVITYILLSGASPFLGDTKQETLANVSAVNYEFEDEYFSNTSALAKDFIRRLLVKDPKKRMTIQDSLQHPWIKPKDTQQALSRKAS

CaMKIV(h) = target: T3, CaMKIV(h) (human, UniProt Q16566 1-473, limits assumed)
T3 sequence (looked up): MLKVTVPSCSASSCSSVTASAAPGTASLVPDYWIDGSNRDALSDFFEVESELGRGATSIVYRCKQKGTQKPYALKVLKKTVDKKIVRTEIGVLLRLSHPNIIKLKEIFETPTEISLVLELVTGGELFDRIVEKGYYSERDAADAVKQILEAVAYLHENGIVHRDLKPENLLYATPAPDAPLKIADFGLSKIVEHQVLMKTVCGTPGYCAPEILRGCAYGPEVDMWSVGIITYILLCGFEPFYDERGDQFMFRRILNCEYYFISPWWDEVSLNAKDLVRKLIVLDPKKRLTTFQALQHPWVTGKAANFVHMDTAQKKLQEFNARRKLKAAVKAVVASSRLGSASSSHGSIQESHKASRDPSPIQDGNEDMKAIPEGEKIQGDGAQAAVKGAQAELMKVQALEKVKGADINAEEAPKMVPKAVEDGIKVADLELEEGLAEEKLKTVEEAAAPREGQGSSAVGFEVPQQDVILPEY

SIK(h) = SIK(h) (human, UniProt P57059 1-783, limits assumed)
Sequence of SIK(h) (P57059 whole entry): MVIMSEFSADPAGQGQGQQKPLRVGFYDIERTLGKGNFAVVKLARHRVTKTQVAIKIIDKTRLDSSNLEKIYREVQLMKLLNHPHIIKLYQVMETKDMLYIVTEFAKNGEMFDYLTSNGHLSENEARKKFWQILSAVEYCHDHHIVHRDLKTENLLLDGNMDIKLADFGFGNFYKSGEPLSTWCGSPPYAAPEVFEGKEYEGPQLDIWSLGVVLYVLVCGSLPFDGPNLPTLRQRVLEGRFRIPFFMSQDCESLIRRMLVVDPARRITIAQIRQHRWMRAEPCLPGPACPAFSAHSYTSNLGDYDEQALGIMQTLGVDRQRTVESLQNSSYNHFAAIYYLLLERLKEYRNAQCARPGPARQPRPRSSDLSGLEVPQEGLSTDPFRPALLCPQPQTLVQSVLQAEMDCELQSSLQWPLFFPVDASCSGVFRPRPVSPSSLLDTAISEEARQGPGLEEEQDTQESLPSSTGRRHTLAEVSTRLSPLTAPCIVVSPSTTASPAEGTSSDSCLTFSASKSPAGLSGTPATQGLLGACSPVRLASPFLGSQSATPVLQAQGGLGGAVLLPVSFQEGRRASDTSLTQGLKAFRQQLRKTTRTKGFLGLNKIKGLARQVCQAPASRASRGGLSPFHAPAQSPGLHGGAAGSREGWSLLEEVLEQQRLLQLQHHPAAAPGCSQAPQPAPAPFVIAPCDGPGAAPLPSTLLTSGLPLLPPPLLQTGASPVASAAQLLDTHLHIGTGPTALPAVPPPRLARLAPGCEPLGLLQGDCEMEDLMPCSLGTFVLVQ

CLK3(h) = CLK3(h) (human, UniProt P49761 1-490, limits assumed)
Sequence of CLK3(h) (P49761 whole entry): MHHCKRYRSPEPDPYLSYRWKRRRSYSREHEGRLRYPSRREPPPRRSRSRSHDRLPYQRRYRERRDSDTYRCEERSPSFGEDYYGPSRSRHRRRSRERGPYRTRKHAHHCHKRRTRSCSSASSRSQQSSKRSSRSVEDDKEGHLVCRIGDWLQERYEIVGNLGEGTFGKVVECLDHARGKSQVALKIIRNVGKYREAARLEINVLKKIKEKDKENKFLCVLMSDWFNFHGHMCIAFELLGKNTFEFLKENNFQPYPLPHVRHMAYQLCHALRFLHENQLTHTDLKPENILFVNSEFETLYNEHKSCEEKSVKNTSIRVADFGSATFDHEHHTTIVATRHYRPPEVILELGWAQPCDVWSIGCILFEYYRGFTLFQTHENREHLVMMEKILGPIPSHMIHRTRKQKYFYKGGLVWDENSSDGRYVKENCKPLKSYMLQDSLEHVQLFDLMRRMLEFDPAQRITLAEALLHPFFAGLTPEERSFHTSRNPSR

IR(h) = IR(h) (human, UniProt P06213 1005-1310, limits assumed)
Sequence of IR(h) (P06213 1005-1310 limits assumed): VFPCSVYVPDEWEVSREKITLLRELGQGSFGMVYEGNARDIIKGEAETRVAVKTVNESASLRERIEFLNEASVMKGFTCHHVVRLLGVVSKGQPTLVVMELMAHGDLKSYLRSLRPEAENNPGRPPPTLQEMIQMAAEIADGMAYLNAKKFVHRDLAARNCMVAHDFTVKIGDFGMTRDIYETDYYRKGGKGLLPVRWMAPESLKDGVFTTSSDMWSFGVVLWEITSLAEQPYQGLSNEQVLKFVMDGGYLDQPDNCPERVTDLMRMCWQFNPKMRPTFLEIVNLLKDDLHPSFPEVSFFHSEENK

EphA5(h) = target: T4, EphA5(h) (human, UniProt P54756 595-1037, limits assumed)
T4 sequence (looked up): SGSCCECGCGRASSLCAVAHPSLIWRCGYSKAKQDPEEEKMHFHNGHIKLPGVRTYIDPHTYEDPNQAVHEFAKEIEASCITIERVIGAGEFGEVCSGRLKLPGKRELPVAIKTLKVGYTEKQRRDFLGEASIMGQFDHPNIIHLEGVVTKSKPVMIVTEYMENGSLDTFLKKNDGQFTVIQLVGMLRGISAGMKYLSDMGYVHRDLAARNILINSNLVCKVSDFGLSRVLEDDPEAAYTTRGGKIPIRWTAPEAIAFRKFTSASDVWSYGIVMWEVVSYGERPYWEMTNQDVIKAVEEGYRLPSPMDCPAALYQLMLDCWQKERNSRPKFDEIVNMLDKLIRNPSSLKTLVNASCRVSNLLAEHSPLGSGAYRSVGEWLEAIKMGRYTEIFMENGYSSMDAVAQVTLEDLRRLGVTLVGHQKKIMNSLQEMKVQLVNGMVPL

Pyk2(h) = Pyk2(h) (human, UniProt Q14289 1-1009, limits assumed)
Sequence of Pyk2(h) (Q14289 whole entry): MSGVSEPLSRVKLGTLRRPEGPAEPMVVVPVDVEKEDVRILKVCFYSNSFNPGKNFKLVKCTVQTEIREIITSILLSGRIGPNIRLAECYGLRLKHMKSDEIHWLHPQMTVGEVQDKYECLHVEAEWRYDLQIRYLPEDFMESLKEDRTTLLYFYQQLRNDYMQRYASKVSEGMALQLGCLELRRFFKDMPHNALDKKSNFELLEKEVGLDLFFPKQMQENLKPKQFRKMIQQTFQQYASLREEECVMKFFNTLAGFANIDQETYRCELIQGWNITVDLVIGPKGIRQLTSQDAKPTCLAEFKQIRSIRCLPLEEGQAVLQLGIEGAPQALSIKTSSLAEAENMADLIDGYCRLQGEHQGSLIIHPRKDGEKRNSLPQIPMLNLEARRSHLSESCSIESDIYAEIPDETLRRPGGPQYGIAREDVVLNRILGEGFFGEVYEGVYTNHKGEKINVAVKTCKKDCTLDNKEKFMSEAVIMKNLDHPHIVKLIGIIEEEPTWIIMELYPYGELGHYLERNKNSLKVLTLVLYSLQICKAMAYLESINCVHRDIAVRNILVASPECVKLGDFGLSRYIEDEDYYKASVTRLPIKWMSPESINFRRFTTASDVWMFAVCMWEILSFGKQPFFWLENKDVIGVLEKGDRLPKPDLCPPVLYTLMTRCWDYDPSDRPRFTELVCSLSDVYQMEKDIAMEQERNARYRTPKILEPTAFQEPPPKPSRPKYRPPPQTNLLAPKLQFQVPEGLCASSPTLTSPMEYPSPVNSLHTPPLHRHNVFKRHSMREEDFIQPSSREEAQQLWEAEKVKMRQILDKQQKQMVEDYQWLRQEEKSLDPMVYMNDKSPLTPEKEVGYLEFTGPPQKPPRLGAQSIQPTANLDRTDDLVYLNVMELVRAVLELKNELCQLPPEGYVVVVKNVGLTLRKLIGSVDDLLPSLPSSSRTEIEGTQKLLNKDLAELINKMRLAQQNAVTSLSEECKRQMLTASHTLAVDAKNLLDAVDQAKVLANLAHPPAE
Also: test concentration or dose not given here.

B1: MMI-0400 (peptide)
peptide: KAFAKLAARLYRKALARQLGVAA
% activity (eEF-2K(h)): 43%
% activity (WNK2(h)): 54%
% activity (Rsk1(h)): 54%
% activity (Itk(h)): 63%
% activity (DAPK1(h)): 36%
% activity (CaMKIV(h)): 18%
% activity (SIK(h)): 68%
% activity (CLK3(h)): 84%
% activity (IR(h)): 85%
% activity (EphA5(h)): 24%
% activity (Pyk2(h)): 34%

B2: MMI-0300 (peptide)
peptide: FAKLAARLYRKALARQLGVAA
% activity (eEF-2K(h)): 91%
% activity (WNK2(h)): 64%
% activity (Rsk1(h)): 46%
% activity (Itk(h)): 77%
% activity (DAPK1(h)): 46%
% activity (CaMKIV(h)): 17%
% activity (SIK(h)): 66%
% activity (CLK3(h)): 61%
% activity (IR(h)): 96%
% activity (EphA5(h)): 18%
% activity (Pyk2(h)): 47%
